Experimental findings from ChEMBL document CHEMBL4706636, “Determining Essential Requirements for Fluorophore Selection in Various Fluorescence Applications Taking Advantage of Diverse Structure-Fluorescence Information of Chromone Derivatives” (J Med Chem, 2021) are described below.

In data set [1] the test system is CCCc1coc2cc(NC(=O)C(N)CCCCN)ccc2c1=O. Put plainly: (§1) Substrate activity at trypsin (unknown origin) by fluorescent biochemical assay. In kind it is protein assay. Conditions: Homo sapiens.
In data set [2] the test system is CCCc1coc2cc(NC(=O)C(N)CCCCN)c(OC)cc2c1=O. The data set is described as §1. In kind it is protein assay. Particulars: Homo sapiens.

With “Trypsin (Homo sapiens) (from UniProt P07477+P07478+P35030)”, the Km is 47.6 µM in data set [1] and 30.3 µM in data set [2].

The term Km denotes the concentration of substrate that gives half-maximal velocity.
